Source: patent US20030207391A1 (published 2003)

Biological target: T1, soluble FLT-1 (sFLT-1) (Homo sapiens, UniProt P17948-2 27-687, limits assumed)
T1 construct: the whole FLT-1 entry is named
Assay: BIAcore; 50 nM sFLT-1 pre-incubated overnight with 50 µg/ml construct, passed over immobilised mAb 2B2
Procedure: Binding of Domain 4 on sFLT-1 is determined using Biomolecular Interaction Analysis (Biacore). (Fisher R. J. and Fivash, M. (1994) Curr. Opin. Biotech. 5, 389-395).
A monoclonal antibody (2B2) specific to Domains 1 to 3 of sFLT-1, but not Domain 4, was immobilized on the sensor chip at a concentration of 30 μg/ml in 10 mM NaAc, pH 5. 50 μg/ml of the four Domain 4 constructs in 20 mM Tris-HCl, pH 7.4 were individually pre-incubated overnight at 4° C. with 50 nM sFLT-1 in HEPES buffer (O.O1M Hepes,pH 7.4, 0.15M NaCl, 3 mM EDTA, 0.005% polysorbate 20 (v/v)). Thereafter the pre-incubated suspensions were passed across the immobilized monoclonal antibody and binding monitored by mass sensitive detection, measured in response units (RU). […] A further control was also run whereby the four Domain 4 constructs, which have not been pre-incubated with sFLT-1, were passed over the immobilized monoclonal antibody. After each run the sensor chip was regenerated in 10 mM Glycine pH 1.75 buffer ready for the next experiment.

T1 sequence (P17948 other isoform, or with tags, fused parts or gaps limits assumed): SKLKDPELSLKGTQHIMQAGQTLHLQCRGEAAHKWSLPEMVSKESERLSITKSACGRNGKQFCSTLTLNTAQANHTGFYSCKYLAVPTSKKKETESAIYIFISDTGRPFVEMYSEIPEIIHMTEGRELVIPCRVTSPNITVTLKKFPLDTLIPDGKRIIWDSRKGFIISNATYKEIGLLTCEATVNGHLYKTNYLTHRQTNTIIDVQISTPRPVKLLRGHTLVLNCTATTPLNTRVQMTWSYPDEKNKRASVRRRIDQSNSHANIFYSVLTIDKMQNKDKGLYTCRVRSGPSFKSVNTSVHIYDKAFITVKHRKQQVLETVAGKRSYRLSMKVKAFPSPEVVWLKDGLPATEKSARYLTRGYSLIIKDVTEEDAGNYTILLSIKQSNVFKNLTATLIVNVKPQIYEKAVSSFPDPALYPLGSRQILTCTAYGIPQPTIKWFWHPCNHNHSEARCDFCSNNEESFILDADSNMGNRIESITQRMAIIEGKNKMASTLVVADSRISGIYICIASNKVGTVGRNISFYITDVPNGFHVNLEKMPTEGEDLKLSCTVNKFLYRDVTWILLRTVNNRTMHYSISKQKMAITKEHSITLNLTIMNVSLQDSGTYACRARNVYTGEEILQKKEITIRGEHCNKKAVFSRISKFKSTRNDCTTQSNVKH

% inhibition of sFLT-1	Binder
5.85%	FLT-1 Domain 4 Construct 0 (residues 338-440), His-tagged (receptor, probably a printing error; also called sFLT-1 Dom; 4 (construct 0); His-Tagged Domain 4 (Construct 0); not shown: histidine tag from the E. coli expression vector) HRKQQVLETVAGKRSYRLSMKVKAFPSPEVVWLKDGLPATEKSARYLTRGYSLIIKDVTEEDAGNYTILLSIKQSNVFKNLTATLIVNVKPQIYEKAVSSFPD
73.3%	FLT-1 Domain 4 Construct 2 (residues 330-440), His-tagged (receptor, not shown: histidine tag from the E. coli expression vector) DKAFITVKHRKQQVLETVAGKRSYRLSMKVKAFPSPEVVWLKDGLPATEKSARYLTRGYSLIIKDVTEEDAGNYTILLSIKQSNVFKNLTATLIVNVKPQIYEKAVSSFPD
64.7%	FLT-1 Domain 4 Construct 1 (residues 330-429), His-tagged (receptor, not shown: histidine tag from the E. coli expression vector) DKAFITVKHRKQQVLETVAGKRSYRLSMKVKAFPSPEVVWLKDGLPATEKSARYLTRGYSLIIKDVTEEDAGNYTILLSIKQSNVFKNLTATLIVNVKPQ
